The values below come from PMC4338028, “Studies of a Murine Monoclonal Antibody Directed against DARC: Reappraisal of Its Specificity” (PLoS ONE, 2015).

Square brackets hold non-standard residues; d marks the D form. Ends that are not written are not given here. sY = N[C@@H](Cc1ccc(OS(=O)(=O)O)cc1)C(=O)O

Test [1] concerns the target murine anti-Fy6 monoclonal antibody 2C3 (clone name NaM185-2C3) (mouse). Briefly: SPR; competition: 2C3 MAb (culture supernatant diluted 40 times) incubated 1 h at room temperature with the synthetic peptides, then injected over 2000 RU of immobilised WT ECD1-nuc (nuclease in the reference cell); RU read at 90 sec; Biacore X100, CM5, HBS-EP; the pair peptide and MAb. (In general: SPR reads the build-up and loss of mass on a sensor chip optically.)

Test [2] deals with ECD1-nuc with the phosphorylation site on Tyr-54 of nuclease removed, not phosphorylated (human). Nature of the test: SPR; ECD1-nuc (Tyr-54 of nuclease removed) immobilised as ligand, nuclease in the reference cell; 2C3 Fab as analyte; measured before and after phosphorylation on the chip by Src kinase; Biacore X100.
Test [3] addresses ECD1-nuc after phosphorylation by Src kinase (phosphate on Tyr-30) (human). Described as above.
The target of test [4] is T1, first extracellular domain of DARC followed by nuclease from Staphylococcus aureus (ECD1-nuc), wild type (Homo sapiens, UniProt Q16570).
T1 construct: Duffy Antigen Receptor for Chemokines (DARC, ACKR1), first extracellular domain (ECD1); also called WT ECD1-nuc; consensus ECD1; source: E. coli BL21, purified (Capto-S ion exchange, reversed-phase chromatography); not shown: nuclease from Staphylococcus aureus, C-terminal, kept
Nature of the test: SPR; 2C3 MAb or 2C3 Fab immobilised by amine coupling (about 400 RU), anti-Kx2 antibody in the reference cell; ECD1-nuc as analyte at 5 concentrations; association 100 sec, dissociation 600 sec; Biacore X100, CM5, HBS-EP; 1:1 Langmuir model. The following applies: both partners purified.

The target in test [5] is T2, DARC from K562 cells after deglycosylation (Homo sapiens, UniProt Q16570, oligosaccharides removed by PNG-ase F on the chip).
T2 construct: Duffy Antigen Receptor for Chemokines (DARC, Atypical Chemokine Receptor 1), full length; m15 after treatment on the chip; also called deglycosylated DARC; source: K562 cells expressing DARC, purified on an immobilised anti-DARC nanobody; deglycosylated with N-glycosidase (PNG-ase F) on the sensor chip
Briefly: SPR; DARC purified from K562 cells immobilised at ca. 400 RU, reference cell only activated and deactivated; 2C3 Fab as analyte; measured before and after deglycosylation on the chip with N-glycosidase; Biacore X100. The following applies: both partners purified.

Test [6] deals with T3, Duffy Antigen Receptor for Chemokines (DARC), full-length consensus, expressed in K562 cells (human) (UniProt Q16570).
T3 sequence (chain, N-linked oligosaccharide chains (as made in K562 cells)): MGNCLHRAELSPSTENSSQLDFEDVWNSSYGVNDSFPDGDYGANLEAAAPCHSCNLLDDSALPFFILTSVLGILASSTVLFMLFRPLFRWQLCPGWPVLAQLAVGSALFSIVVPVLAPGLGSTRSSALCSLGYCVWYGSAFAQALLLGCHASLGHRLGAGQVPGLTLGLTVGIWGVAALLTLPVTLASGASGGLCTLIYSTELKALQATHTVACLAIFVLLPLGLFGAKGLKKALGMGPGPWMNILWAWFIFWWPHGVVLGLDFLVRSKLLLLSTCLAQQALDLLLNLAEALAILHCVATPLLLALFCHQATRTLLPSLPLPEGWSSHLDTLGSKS
The test is described as above.

The target in test [7] is T1, first extracellular domain of DARC …. Nature of the test: ELISA; direct: plate coated with wild-type ECD1-nuc (0.1 μg per well), 2C3 Fab diluted in TBS, 1 h at room temperature; detected with anti-Fab antiserum conjugated with alkaline phosphatase; triplicates. The following applies: both partners purified.
The target of test [8] is T4, full-length DARC with Ser-29 and Tyr-30 replaced by Ala, on K562 cells (Homo sapiens (Human)., UniProt Q16570, S29A (printed as the sequence FEDVWNSAA) | Y30A (printed as the sequence …, site N27 is not glycosylated)).
T4 construct: DARC (ACKR1), full length, mutant; source: K562 cells, transfected, on cells
Nature of the test: flow cytometry on cells; about 10^6 transfected K562 cells incubated 1 hour with 2C3 MAb culture supernatant in PBS-0.2% BSA, PE-conjugated secondary antibody; read-out is the ratio of % cells positive with 2C3 MAb to % positive with the anti-Fy^a antibody; cells with mean fluorescence above 10^2 counted as positive. The following applies: partners not purified.

Test [9] concerns the target T5, full-length DARC with Trp-26 replaced by Phe, on K562 cells (Homo sapiens (Human)., UniProt Q16570, W26F (printed as the sequence FEDVFNSSY)).
T5 construct: DARC (ACKR1), full length, mutant; source: K562 cells, transfected, on cells
Described as above. The following applies: partners not purified.

The target in test [10] is T6, full-length DARC with Tyr-30 replaced by Ala, on K562 cells (Homo sapiens, UniProt Q16570, Y30A (printed as the sequence FEDVWNSSA)).
T6 construct: DARC (ACKR1), full length, mutant; source: K562 cells, transfected, on cells
The description is as above. The following applies: partners not purified.

Test [11] deals with T7, Duffy Antigen Receptor for Chemokines (DARC), full-length consensus, expressed in K562 cells (Homo sapiens, UniProt Q16570, N-linked oligosaccharide chains (as made in K562 cells)).
T7 construct: also called ACKR1; DARC from K562 cells; source: K562 cells, transfected, selected with geneticin: on cells (flow cytometry); purified from the lysate on an immobilised anti-DARC nanobody, eluted with peptide DFEDVW (SPR)
Described as above. The following applies: partners not purified.

Test [12] has as its target T8, full-length DARC with Tyr-30 replaced by Glu, on K562 cells (Homo sapiens, UniProt Q16570, Y30E (printed as the sequence FEDVWNSSE)).
T8 construct: DARC (ACKR1), full length, mutant; source: K562 cells, transfected, on cells
Described as above. The following applies: partners not purified.

The target in test [13] is T9, full-length DARC without the glycosylation site at Asn-27 (Ser-29 replaced by Ala), on K562 cells (Homo sapiens, UniProt Q16570, S29A (printed as the sequence FEDVWNSAY), site N27 is not glycosylated).
T9 construct: DARC (ACKR1), full length, mutant; source: K562 cells, transfected, on cells
The test is described as above. The following applies: partners not purified.

Test [14] concerns the target T10, synthetic peptide DFEDVWNSSYG (residues 21-31 of ECD1 of DARC) (Homo sapiens).
T10 construct: DARC (ACKR1), residues 21-31 of ECD1; also called non-sulfated peptide; source: synthetic peptide; bought: Cambridge Research Biochemicals
T10 chain: DFEDVWNSSYG
Nature of the test: SPR; competition: 2C3 MAb (culture supernatant diluted 40 times) incubated 1 h at room temperature with the synthetic peptides, then injected over 2000 RU of immobilised WT ECD1-nuc (nuclease in the reference cell); RU read at 90 sec; Biacore X100, CM5, HBS-EP; the pair peptide and MAb. The following applies: one partner purified.

On to DFEDVWNSS[sY]G [synthetic sulfated peptide …(SO3H)G (residues 21-31 of ECD1 of DARC)], for which, in test [1], the IC50 – broadly, the concentration needed to halve the response being measured – is 252 nM.

B1: 2C3 Fab fragment (Fab, V domains shown)
VH: EVKLVESGGDLVQPGGSLKLSCAASGMTFSSYGMSWVRQTPDKRLELVASINRNGGSTYYPDSVKGRFTISRDNAKNTLYLQMSSLKSEDTAMYFCVRAGDYLSMDYWGQGTSVTVSS
VL: ELVMTQTPLSLPVSLGDQASISCRTSQSLLHSNGNTYLHWYLQKPGQSPKLLIYKVPNRFSGVPDRFSGSGSGTDFTLRITRVEAEDLGVYFCSQSTHVYTFGGGTKLEIK
notes: variable region of the heavy chain, as the VH of m1; CH1 part of the Fab; variable region of the light chain, as the VL of m1; light chain constant domain of the Fab; Cloned by PCR from total RNA of the hybridoma into pComb3H; also called 2C3-derived Fab; source: E. coli (pComb3H vector), purified
Turning to B1, the Kd – broadly, the constant that tells how readily two partners part at equilibrium – was 14.2 nM in [2]; 0.459 nM in test [3]; 93 nM in test [4]; 0.0283 nM in [5]; 0.263 nM in [6]. For the same molecule, the koff (commonly the rate constant with which the complex falls apart) in test [2] turned out to be 0.000766 s⁻¹; in [3], 0.000777 s⁻¹; in test [5], 0.000276 s⁻¹; in test [6], 0.000547 s⁻¹. Moreover, the kon – broadly, the second-order rate constant of association – in test [2] is 53900 M⁻¹ s⁻¹; in test [3], 1.69e+06 M⁻¹ s⁻¹; in test [5], 9.75e+06 M⁻¹ s⁻¹; in test [6] it was 2.08e+06 M⁻¹ s⁻¹. The “fold lower affinity than 2C3 MAb (ELISA)” value in [7] was ~2 fold.

B2: murine anti-Fy6 monoclonal antibody 2C3 (clone name NaM185-2C3) (antibody, V domains shown)
VH: EVKLVESGGDLVQPGGSLKLSCAASGMTFSSYGMSWVRQTPDKRLELVASINRNGGSTYYPDSVKGRFTISRDNAKNTLYLQMSSLKSEDTAMYFCVRAGDYLSMDYWGQGTSVTVSS
VL: ELVMTQTPLSLPVSLGDQASISCRTSQSLLHSNGNTYLHWYLQKPGQSPKLLIYKVPNRFSGVPDRFSGSGSGTDFTLRITRVEAEDLGVYFCSQSTHVYTFGGGTKLEIK
notes: variable region of the heavy chain; murine heavy chain constant region; variable region of the light chain; murine light chain constant region; Whole murine antibody; The variable regions were cloned from the hybridoma for the Fab; also called 2C3 MAb; MAb 2C3; source: 2C3-producing hybridoma
With B2, the “ratio of % cells positive with 2C3 MAb to % cells positive with anti-Fy^a MAb” value worked out at 0.95 ± 0.03 in [8]; 0.19 ± 0.02 in [9]; 0.75 ± 0.03 in [10]; 0.97 ± 0.07 in [11]; 1.16 ± 0.09 in test [12]; 0.97 ± 0.04 in test [13]. This molecule showed a Kd in test [4] of 1.1 nM. Further, the IC50 in test [14] came to 410 ± 40 nM.
